Measurements published in the DeepSol protein solubility set.

Experiment: soluble on expression in E. coli; label from the status in PepcDB or PDB records

Row | Sequence | soluble on expression in E. coli
1 | MSLSDNIYSVSQLNSAARQMLEGNFCQIWLTGEISNFTQPVSGHWYLTLKDENAQVRCAMFRMKNLRVAFRPQNGMQVLVRANVSLYEPRGDYQLIIDSMHPAGEGLLQQQFEALKMKLAAEGLFAQNLKKTLPHFSKAVGIITSSTGAALQDILHILARRDPSLKVVIYPTAVQGKEATAEIVQMIELANARQEVDVLIVGRGGGSLEDLWCFNEEEVARAIFRSTLPIISAVGHETDVTIADFVADLRAPTPSAAAELVSRNQDELLQQLRHQQQRLDMAFDRLFTRKSQRLKQLALRLQNQHPQNQLRAQQAKNEQLTHRLQLAILRQFENTQQKFTALSVRLKQNPLPYRIQRYQQGLEQLKVRLNFCVNRQVTERQNKLATLCGKLDGLSPLKVLARGYSIAENPQGKAIVSVKDVNQGDFITTQVADGKIVSKVLEGHHHHHH | not soluble
2 | TPARDWNYTAPDGTVVEGWYYLPPQFDPSKKYPMLVYYYGGTSPINRTLEGHYSLAMYAAQGYVVYTLNPSGTTGYGQEYAARHVNAWGDRTADEIIGATKEFIRTHSFVNGKKVGCFGASYGGFMTQYLQTKTDIFAAAVSHAGISSISNYWGSGYWGMGYSTVASTDSYPWNNPDLYAGHSPLFRADKIHTPLLLLHGSVDTNVPTAESVNLYNALKILGREVEFIEFTEQDHFILEPERRIRWTNSICAWFARWL | not soluble
3 | MGSDKIHHHHHHMLNKLCMYLERPELYKQSEINFWDDEYISKQLLKAHLDTNFEGASRNFNFIEDSVNWIVTVANPANYPKLLDLGCGPGLYAEKFAQKGYKVTGIDFSKRSINYAQNRNKETNLNINYLFQSYLNMNYNEEFDLATLIYCDYGALSTENRRLLMEKIYDSLKPGGKLILDVFTINKYNNFEEIKYWEINEDGGFWSNEKYMCLQDNCKYNDYNTLEQTLVITEKDENVFYVWNHYFSKESFLLEVENIGFKSVEFFSNVKGEAYSDDSMTMGLVLQK | not soluble
4 | MSLGTPSEPTSTLESDIFDDLSLYYLEDVFLSATTPSPTFDLSDPSDPSLSDSFDSEWSPMTPCSIERPETSTSSIFSFEARPIKTPPPAEYLRLPTFLSTNNSGFFDSVVASDFNLYGKFNDWLNDSKPRSGSFAIESAEELARNPRETRSEPEVPSLFKRREYGCGYCRSVGYMRWETHTRKKCDKLSSLAPCKICGARGEMNHTETYCPMKPSSQLFFNEDFSRDFENRRFQRSRYQFYKHSSLIQKIYASSEDSF | not soluble
5 | MGHHHHHHSHMVSSNFWFKYPKTCSKVEHFVSILGKCFESPWTTKALSETACEDSEENKQRITGAQTLPKHVSTSSDEGSPSASTPMINKTGFKFSAEKPVIEVPSMTILDKKDGEQAKALFEKVRKFRAHVEDSDLIYKLYVVQTASPFPNQ | not soluble
6 | MEKIWLDSYEKGVSAEIDITQYNSVSDVFRQSVEKFADQPAFQNMGKTLTYAETGKLATDFASYLQNVLKLPRGERVAIMLPNVLQYPVALFGILQAGLVAVNTNPLYTPRELEHQLKDSGATAIIVLENFANTLELVLPRTQIKHVIVASVGEMFGLLKGSLINFVIRKIKKMVPEYRIRETVSFQTALKEGAKHVFQPVALNREDTALLQYTGGTTGVAKGAVLSHGNICANMLQAKEWIKNQLREGKETVIAALPLYHIFALTVNLMIFANAGSKIILITNPRDMKGFIGELKKQRVNVFIGVNTLFNAMVNRPDFAEVDFSELRLTLGGGMATQKAVAEKWKKITGTPIVEAYGLTEASPGVCCNPLNIESYSGSIGLPVSSTEVELRDANGKEVPVGQPGELWVKGPQVMQGYWNRPEETAKAIDARGFLETGDIAVMDEKGWLKLVDRKKDLVVVSGFNVYPNEIEEVIAHHGKVMEVACIGVPDEKTGEALKVFVVKKDPSLTKEELIAFCRTELTAYKVPKNIEFRDELPKSNVGKILRRELRQSTGK | not soluble
7 | MPGELLGAHYGHCFGCGEEQSHGLHLAARAGQGVSITAEFTVQPAHQGAPGLAHGGVLATALDETLGSLNWLLRTIAVTGRLETDFVRPVPVGTVLYLEAEVTAVAGRKIYSTATGRIGGPEGPVAVRADALFVEVKVDHFTDNGRQEEIRAAMNDPDQLRRARAFEVNPLEHHHHHH | not soluble
8 | MGSDKIHHHHHHMADRMQWANALSTRPSLEAAVTDVVQRAVSTLTAPADLGLVFISSAFASEYSRVLPLLAEQLSVPVMIGCSGGGVIGTAASGQTQELEAEAALSLTLAHLPGVNLQVFHVLGEELPDLDSPPDTWINLIGVPPSPTPHFILLSSAFSSGINDLLQGLDFAYPGSVILGGQASVGGMGGRLALFCNGSLHREGTVGLALSGNIVLEPIVAQGCRPIGEPLQVTKAERNIILELDEKVPLVVLRDLIASLSEKERALAQHSLFVGVAMDEFKLSLQQGDFLIRSILGVDPSGGAIAIGDLVRPGQRLQFHLRDSQASAEELEFLLERYQTKPEFDNSAVGALMFSCVGRGEGLYGKPNFDSELFKRYIQDVPVGGFFCGGEIGPVGGRTFLHGYTSVFGICRELSVED | not soluble
9 | MGSDKIHHHHHHMAEDLTPEGGDRAPSKDGSVPAYAGRQSADPGWEWGKIRGDFWKHRNEKPLYSIDGSNVDKYAEQLTPGQVQLVKQKKGYRMDVYPSHRECQASDFVAQNSKANLTGAKLDSTGEQLQTAILPGVPFPQPKNGAEAMLNYLMRYRGEGIEWPSVVTTVSPRPGSSDWIDAISTATQYFPASKQGKRTPHDVDQLSSATFFKMESPPALAGQAFVQRQFFNKDPETFYYFPGQRRVRRMPAYTHDAPAIGFENQYLIDEANMFFGAIDRFDWKLAGKKEMIVPYNAFGMYKFNDKLHDVVTPDGIAAANRRYEMHRVWVVEATLKPSARHVASKKVFYLDEDSWLALVANDYDAQGKLWRVRESYPIPVWELGGACDNEPFAQYDLINGRYVTDQSTIGQGKDIRWYEKTNDPRFKPDFFTSESLRSVSER | not soluble
10 | MYRTHYSSEITEELNGQKVKVAGWVWEVKDLGGIKFLWIRDRDGIVQITAPKKKVDPELFKLIPKLRSEDVVAVEGVVNFTPKAKLGFEILPEKIVVLNRAETPLPLDPTGKVKAELDTRLNNRFMDLRRPEVMAIFKIRSSVFKAVRDFFHENGFIEIHTPKIIATATEGGTELFPMKYFEEDAFLAESPQLYKEIMMASGLDRVYEIAPIFRAEEHNTTRHLNEAWSIDSEMAFIEDEEEVMSFLERLVAHAINYVREHNAKELDILNFELEEPKLPFPRVSYDKALEILGDLGKEIPWGEDIDTEGERLLGKYMMENENAPLYFLYQYPSEAKPFYIMKYDNKPEICRAFDLEYRGVEISSGGQREHRHDILVEQIKEKGLNPESFEFYLKAFRYGMPPHGGFGLGAERLIKQMLDLPNIREVILFPRDRRRLTP | soluble
11 | MDDILVTSDLTSRYKISRKTLWSWQSADTMPRGFVCPFPPPDWPGNPNRWRSESIKEWEDKKKIN | not soluble
12 | MQDVFIIGSRGLPAKYGGFETFVEELISHQSSKNIRYHVACLSDTKHKVHFDYKGADCFYLNPPKLGPARVIAYDMMAITYALSYSDQHQIQNPIFYVLGNTVGAFIAPFVKQIHNRGGRFFINPDGLEWKRSKWSRPVQAYLKFSEKQMTRQADLVISDNIGIDRYLKQVYPWSKTCFIAYGTQTQPSRLATADSKVRAYFQTFDIREKDYYLILGRFVPENNYETAIKEFMASSTKRDLVIICNHEGNAYFKQLLAETECDKDPRIKFVGTLYDKELLAYIREQAYAYIHGHEVGGTNPGLLEALAHTNLNLVLGVDFNQSVAKSAALYWTKQKGQLAELINQVDAGFDSDHLGKEAKAIIQEHYTWEKIVGEYEALFLNEH | not soluble
13 | MGSDKIHHHHHHMTNSIMALPSSIRHYRRKQMAINQVAQTPAISPLTIKERTGSISTAEMISVLKGETTALHIKQAFSTEVAEEITTNFLGSPGLKERKDGVPGQYVGASHYRKDAATYFAESETARPHVDALFENLVDPVRGSFDALKRELHKQGIELRLARSEHGHANVCRALSWSGSGTFSLDPHDDVAQVLSAGNDYELSAVAHNTVAALNFYPSMPEEGGNLRLWSHKPTVADRKSQGVETTGYPYSSAYLEAVPCREFQLKPGDIALIDGGFVHGVTGQSGNGKRRLVLNSFFGFARPDLVLWWT | not soluble
14 | SNAMTLTALNAISPIDGRYVNKTRALSPYFSEFALTYYRLMVEIKWFESLAANDTIPEVPALDNKARKFLSDLISNFNESEAEKIKEFEKQTNHDVKAVEYYLQDKFQENEQLKSCVAFIHFACTSEDINNLAYALMIKQAIAQVIQPTIAEIMGSITLLGKQHADVAMLSRTHGQPATPTTMGKELVNFVARLKRPQQQLAEVLIPAKFNGAVGNYNAHVAAYPEVDWRKHCANFVTSLGLSFNAYTTQIEPHDGIAEVSQIMVRINNILLDYTQDIWSYISLGYFKQKTIAEEVGSSTMPHKVNPIDFENAEGNLGLSNALFIHFANKLTQSRMQRDLSDSTVLRNLGVAFSYSLIAYHSVAKGNDKLQINKSALQKDLSENWEVLAEAIQTVMRRYNEPNAYEQLKELTRGQMIDAENLKKFIKTLSIPEEAKAELMKLTPETYTGLATQLVKAFS | soluble
15 | MDPFGTYKTAISARATDKAILKKSQDGGIISASYIYGLENGLLDGVIVANTEDGFKAAPKIATTPEEVLSAAGTKYTVSPNVSVLKDAVREYALEKVGIVGTPCQVRAIRKLMKYPMGFRHTDSKIALVMGIFCMENFPYEGMKAIVEQYAGIRMNDVLKTDIGKGKFWVYSKSGDVKAVPLKDTHMYEQKSCHVCMDYTAELADISTGSVGSPDGWSTIFVRTAKGEEYLNKMVEAGALETKPIDDVKPGLDLVQKLALQKKEKNDKEIAHRKEIGLPVPYLEHHHHHH | not soluble
16 | MSLKNFINFHILISHSPSCLNRDDMNMQKSAVFGGERRVRVSSQSLKRAIRKSDYYRQHLGEASVRTKKLDELIAIINDRLAGRYDTDLLKKTVGLLAGKELSVEVATEGDAVAPWAIEEVAWFCEQVKRMVAQGQDEKALGKLLKNETAAMRQALASGVDIALSGRMATSGLMSELGKVDGALAVAHVLTTHSVDADIDWFTAVDDLQELGSGHLDTQEFSSGVFYRYASLNVKQLQENLGNAPREKALEIGAHLLHMLATIVPSAKQQSFAAHNLADLALVSFSDIPVSLANAFEKPVRSVNGSGFKEPSIAELHNYWQQIHTGYGLSERCGEFILGQSSVPEGITRKSTIEELKTWVMNNGEGEGHHHHHH | soluble
17 | MSAVFGAKYTLRFGHVLAPGEPYHQAFLKWAKAVEEKTNGDVRIEVFPSSQLGVEEDIIEQIRMGAPVGWNTDSARLGMYVKDIGVMNLAYFIDFMGAKTPEEAIEVLKKIKQSPTMQKWLKELEQRFGIKVLSFYWVQGYRHFVTNKPIRKPEDLNGLRIRTPGAPAWQESIRSLGAIPVAVNFGEIYTAVQTRAVDGAELTYANVYNGGLYEVLKYMSETGHFLLINFEIVSADWFNSLPKEYQKIIEEEMDKAGIEVSLKIMKELEEEYKQKCIEKGMAVIPASEIDKEAFMEKAKQAYKNLGLENALNQLIKEVKGEHHHHHH | soluble
18 | MRRRGKGGGSVFYHEGKGKWVAQLTWIDPATGRKVKREKHCETRKEAERALADMVVAQAKGLLTDPSRLTTRDFALDYLKRLEREGLRPNSIRLAQEELAHALPSLKDPKAHDPLGRMRLQEVKPVHVRAAVDRVAEAGYAPRTVGRVLMRLKALFREALRLELVARNPAEAVRLRLPKGEKTARALEPQEVARLLETAEASRSKDMALLLRLMLETGLRRGEALALQWRDIDLEAGELTVWRSWTKARGKGAFSEPKTPTAKRKVPLPRGLLLRLKARREELLERLTPKEVDGLFLVGGVKPVDPDAFNHYLRRLAERAGLGRVRVHDLRHTWATLALSRGVPLEVVSERLGHASPTITLNVYRHLLEEERRGWVLDLEELLYPAPRAQA | soluble
